In patent publication US20210230292A1 (DIATHEVA S R L, published 2021):

T1: human CD99ecd/GST (human, UniProt P14209 23-122)
T1 construct: Expressed in E. coli BL21(DE3), purified on Glutathione Sepharose; also called CD99ecd/GST antigen; recombinant CD99; not shown: glutathione-S-transferase as encoded by vector pGEX-2T (GE Healthcare); CD99ecd fused downstream of it through the BamHI
T1 sequence: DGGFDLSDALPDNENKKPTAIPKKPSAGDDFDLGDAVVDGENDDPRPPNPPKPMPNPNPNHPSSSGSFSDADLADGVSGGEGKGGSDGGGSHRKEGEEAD


Biological target: T1, human CD99ecd/GST
Test: competitive ELISA (Rath 1988), CD99ecd/GST coated and soluble CD99ecd/GST as inhibitor
Protocol: The binding affinity, expressed as the dissociation constant (kd) of scFv C7, C7dAbd, C7IgG4 and C7IgG1 for CD99, was determined by analysing the saturation of binding at equilibrium with a competitive ELISA assay according to the procedure described in Rath S 1988 with small variations. […] For this purpose, 96-well plates were sensitized by distributing 500 ng/well of CD99ecd/GST diluted in 0.5M carbonate buffer, pH 9.6, and incubating ON at 4° C. After 3 washes with PBS supplemented with 0.05% V/V of Tween20, the plates were blocked with a 1% W/V solution of BSA in PBS (PBSB), pH 7.4, for 60 min. at 37° C. After washing, the plates were incubated for 1 hour at 37° C. with serial dilutions of C7 (from 200 μg/ml to 0.03 μg/ml in triplicate) diluted in PBSB and dispensed (100 μl/well). The plates were incubated at 37° C. for 90 minutes. After washing a dilution of polyclonal anti-scFv diluted 1:500 in PBSB was dispensed, 100 μl/well, and incubated for 60 minutes at 37° C. […]
A competitive ELISA assay was then set up. […] The scFvC7 and C7 diabody signal was determined by dispensing, in a first step, a polyclonal anti-scFv antibody generated in rabbits immunized with scFvC7 and diluted 1:500 v/v in PBSB and subsequently with an anti-rabbit HRP diluted 1:1000 v/v. […]

| Kd [µM] | Binder |
| --- | --- |
| 0.00586 | C7IgG4 (antibody, VH and VL of scFvC7 fused to human IgG4 constant regions; produced in Expi293F cells; also called IgG4wt; C7IgG4 wt) heavy: not shown light: SSELTQDPAVSVALGQTVRITCQGDSLRSYYASWYQQKPGQAPVLVIYGKNNRPSGIPDRFSGSSSGNTASLTITGAQAEDEADYYCNSSFPRTSSVVFGGGTKLTVLGQPKANPTVTLFPPSSEELQANKATLVCLISDFYPGAVTVAWKADGSPVKAGVETTKPSKQSNNKYAASSYLSLTPEQWKSHRSYSCQVTHEGSTVEKTVAPTECS |
| 9 | C7IgG1 (antibody, VH and VL of scFvC7 fused to human IgG1 constant regions; produced in Expi293F cells) heavy: not shown light: SSELTQDPAVSVALGQTVRITCQGDSLRSYYASWYQQKPGQAPVLVIYGKNNRPSGIPDRFSGSSSGNTASLTITGAQAEDEADYYCNSSFPRTSSVVFGGGTKLTVLGQPKANPTVTLFPPSSEELQANKATLVCLISDFYPGAVTVAWKADGSPVKAGVETTKPSKQSNNKYAASSYLSLTPEQWKSHRSYSCQVTHEGSTVEKTVAPTECS |
